5 molecules from patent US20130129730A1 (Amgen, published 2013) can be followed below.

In the assay the target is T1, human EpCAM (human, UniProt P16422 24-314).
T1 construct: whole, on cells; also called Epithelial cell adhesion molecule; CD326
T1 sequence (looked up): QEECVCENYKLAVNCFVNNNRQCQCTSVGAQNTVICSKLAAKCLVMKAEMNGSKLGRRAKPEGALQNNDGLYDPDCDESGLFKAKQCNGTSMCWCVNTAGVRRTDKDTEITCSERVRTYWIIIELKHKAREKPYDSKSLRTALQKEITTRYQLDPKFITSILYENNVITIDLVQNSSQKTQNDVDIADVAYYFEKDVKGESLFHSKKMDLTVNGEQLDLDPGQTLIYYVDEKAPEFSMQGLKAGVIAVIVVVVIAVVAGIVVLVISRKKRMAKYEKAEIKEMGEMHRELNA
Put plainly: flow cytometry, scFv periplasmic preparation on human EpCAM transfected CHO cells. Here is the method:
Periplasmic preparations of E. coli clones producing the scFv molecules EpCAM 4-7, PM74-G3, PM52-H3, PM52-C3, PM75-A10 and PM91-B6 are used to examine specific binding to human PSMA or human EpCAM transfected cell lines. As negative control untransfected CHO cell are used.
For flow cytometry 2,5×10⁵ cells are incubated with 50 μl of scFv periplasmic preparation. The binding of scFv to the cells is detected with an anti-His antibody (Penta-His Antibody, BSA free, Qiagen GmbH, Hilden, FRG) at 2 μg/ml in 50 μl PBS with 2% FCS. As a second step reagent a R-Phycoerythrin-conjugated affinity purified F(ab′)2 fragment, goat anti-mouse IgG (Fc-gamma fragment specific), diluted 1:100 in 50 μl PBS with 2% FCS (Dianova, Hamburg, FRG) is used. The samples are measured on a FACSscan (BD biosciences, Heidelberg, FRG).
Flow cytometry is performed on a FACS-Calibur apparatus; the CellQuest software is used to acquire and analyze the data (Becton Dickinson biosciences, Heidelberg). FACS staining and measuring of the fluorescence intensity are performed as described in Current Protocols in Immunology (Coligan, Kruisbeek, Margulies, Shevach and Strober, Wiley-Interscience, 2002).
In general terms: In flow cytometry, cells or beads pass a laser one at a time.

Changes are numbered by the printed parent chain.

B1: scFv PM52-C3 (scFv)
scFv: QVQLVQSGAEVKKPGASVKLSCKASGYTFTYFDINWVRQTPEQGLEWMGGISPGDGNTNYNENFKGRVTMTRDTSSSTAYMELSRLRSDDTAVYYCARDGNFPYYAMDSWGQGTTVTVSSGGGGSGGGGSGGGGSDVVMTQSPLSLPVTLGEPASISCRSSQSLVYSNGNTYLHWYQQKPGQSPRLLIYKVSNRFSGVPDRFSGSGSGTDFTLKISRVEAEDVGVYFCSQSTHVPYTFGQGTKLEIKDYKDDDDK
notes: Tested as periplasmic preparation from E. coli; also called PM52C3-VH-VL; not shown: His6-tag
Regarding B1, the binding result is reported as “no binding”.

B2: scFv PM91-B6 (scFv)
scFv: B1 scFv with M107L, D108T, S109N
notes: Tested as periplasmic preparation from E. coli; also called PM91B6-VH-VL; not shown: His6-tag
For the molecule B2, the binding result was “no binding”.

B3: scFv PM75-A10 (scFv)
scFv: B1 scFv with D108V, S109N
notes: Tested as periplasmic preparation from E. coli; also called PM75A10-VH-VL; not shown: His6-tag
B3: the binding result is “no binding”.

B4: scFv PM52-H3 (scFv)
scFv: B1 scFv with S76K
notes: Tested as periplasmic preparation from E. coli; also called PM52H3-VH-VL; not shown: His6-tag
For the molecule B4, the binding result was “no binding”.

B5: scFv PM74-G3 (scFv)
scFv: QVQLVQSGAEVKKPGASVKLSCKASGYTFTYFDINWVRQAPEQGLEWMGGISPGDGNTNYNENFKGRVTMTIDTSSSTAYIELSRLTSDDTAVYYCARDGNFPYYAMDSWGQGTTVTVSSGGGGSGGGGSGGGGSDVVMTQTPLSLPVSLGDQASISCRSSQSLVHSNGNTYLHWYLQKPGQSPKLLIYKVSNRFSGVPDRFSGSGSGTDFTLKISRVEAEDLGVYFCSQSTHVPYTFGGGTKLEIKDYKDDDDK
notes: Tested as periplasmic preparation from E. coli; also called PM74G3-VH-VL; not shown: His6-tag
In the case of B5, the binding result was “no binding”.
